Laboratory results as given in US20210061875A1.

Columns and labels:
[1] = target: myelin oligodendrocyte glycoprotein 35-55 peptide (MOG35-55) in the context of I-A(b) (mouse; murine) (UniProt P14434)
[2] = target: ovalbumin 323-329 peptide (OVA323-339) in the context of I-A(b) (murine) (UniProt P01012)
[3] = target: myelin oligodendrocyte glycoprotein 35-55 peptide (MOG35-55) in the context of I-A(b) (mouse; murine) (UniProt P14434); remark: listed apart in the source
[4] = target: ovalbumin 323-329 peptide (OVA323-339) in the context of I-A(b) (murine) (UniProt P01012); remark: listed apart in the source

Row | Substance | Cytotoxicity (specific lysis of peptide-pulsed splenocytes, in vitro, 3 days) [1] [%] | Cytotoxicity (specific lysis of peptide-pulsed splenocytes, in vitro, 3 days) [2] [%] | Ratio of MOG/OVA pulsed APC (in vivo cytotoxicity, spleen after 48 hours) (ratio of MOG/OVA pulsed APC) [3] | Ratio of MOG/OVA pulsed APC (in vivo cytotoxicity, spleen after 48 hours) (ratio of MOG/OVA pulsed APC) [4]
1 | 2D2 TCR | 17 | 3 | 0.7 | 
2 | OT-II TCR | 4 | 32 |  | 6.2
